Results from publication PMC9040794, “The Plant Defense Signal Salicylic Acid Activates the RpfB-Dependent Quorum Sensing Signal Turnover via Altering the Culture and Cytoplasmic pH in the Phytopathogen Xanthomonas campestris” (mBio, 2022).

System: CC(C)CCCCCCC/C=C\C(=O)O
Experiment: purified protein
Conditions: pH 7.0 phosphate (standard of pH 6, 7, 8 tested); co-substrates 5 mM ATP, 0.5 mM CoA; 10 mM MgCl2, 2 mM EDTA, 0.1% Triton X-100; 37°C in b48 (28°C elsewhere in the source)

RpfB (Xanthomonas campestris pv. campestris str. ATCC 33913)
Km: 6.5 µM
